Test results as given in patent publication US20090208538A1 (ROCKEFELLER UNIVERSITY, published 2009).

B1: cdr2 244-252 RARALELEA (peptide)
peptide: RARALELEA
B2: cdr2 157-165 SFACLKELY (peptide)
peptide: SFACLKELY
B3: cdr2 168-176 RQHFVYDHV (peptide)
peptide: RQHFVYDHV
B4: cdr2 287-295 SQSLLEEMF (peptide)
peptide: SQSLLEEMF
B5: cdr2 107-113 ASQQKILSL (peptide)
peptide: ASQQKILSL
B6: cdr2 337-345 AVKQRGISL (peptide)
peptide: AVKQRGISL
B7: cdr2 345-353 LLHEVDTQY (peptide)
peptide: LLHEVDTQY
B8: cdr2 339-347 KQRGISLLH (peptide)
peptide: KQRGISLLH
B9: cdr2 259-267 QMLQSEHPF (peptide)
peptide: QMLQSEHPF
B10: cdr2 378-386 AVQTSRAAA (peptide)
peptide: AVQTSRAAA
B11: cdr2 424-432 ALFKEIFSC (peptide)
peptide: ALFKEIFSC
B12: cdr2 351-359 TQYSALKVK (peptide)
peptide: TQYSALKVK
B13: cdr2 290-298 LLEEMFLTV (peptide)
peptide: LLEEMFLTV
B14: cdr2 163-171 ELYDLRQHF (peptide)
peptide: ELYDLRQHF
B15: cdr2 355-363 ALKVKYEEL (peptide)
peptide: ALKVKYEEL
B16: cdr2 197-205 HLKKTVTML (peptide)
peptide: HLKKTVTML

What follows are binders tested against T1, HLA-A*1501 (human) (assay: iTopia net score).
T1 construct: possibly meant as HLA-B*1501

iScore	Binder
0.118	B1
0.132	B2
0.088	B3
0.062	B4
0.092	B5
0.16	B6
0.121	B7
0.163	B8
0.257	B9
0.062	B10
0.053	B11
0.181	B12

Each binder was assayed against T2, HLA-A*0201 (human) (assay: iTopia off-rate;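 note: Half-life of peptide complexes with plate-bound HLA-A2, peptides loaded 18 h at 21 C, washed, then held at 37 C over several time points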).
T2 construct: also called HLA-A2.1; HLA A2.1

t1/2	Binder
5.9	B13
0.55	B14
3.7	B3
3.4	B5
3.5	B7
0.8	B15
2.5	B16
18.7	B11

What follows are binders tested against HLA-A*2402 (human) (assay: iTopia affinity;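 note: peptide binding to HLA-A*2402 measured in iTopia kit format across eight serial peptide dilutions, ED50 derived from the resulting titration curve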).

ED50 [µM]	Binder
3.3	B14
1.4	B2
14	B4
20	B6
10	B15
89	B16
6.9	B8
53	B9

The binders below were run against HLA-A*0101 (human) (assay: iTopia affinity).

ED50 [µM]	Binder
21	B13
6.9	B2

These binders were tested against HLA-A*1101 (human) (assay: iTopia affinity;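 note: affinity derived from a titration of eight serial peptide dilutions, each run under the same conditions as the binding screen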).

ED50 [µM]	Binder
20	B5
22	B8
2.8	B12

What follows are binders tested against HLA-B*0801 (human) (assay: iTopia affinity).

ED50 [µM]	Binder
340	B14
22	B6
84	B15
37	B16

What follows are binders tested against HLA-A*1101 (human) (assay: iTopia net score).

iScore	Binder
0.19	B5
0.089	B8
0.276	B12

What follows are binders tested against HLA-B*0801 (human) (assay: iTopia net score).

iScore	Binder
0.037	B14
0.139	B6
0.099	B15
0.123	B16

Each binder was assayed against HLA-B*0702 (human) (assay: iTopia off-rate).

t1/2	Binder
0.47	B1
1.18	B6
0.11	B16
0.9	B10

What follows are binders tested against HLA-A*0301 (human) (assay: iTopia off-rate).

t1/2	Binder
1.48	B12

The binders below were run against HLA-A*1101 (human) (assay: iTopia off-rate).

t1/2	Binder
2.45	B5
0.44	B8
0.76	B12

Each binder was assayed against T2, HLA-A*0201 (assay: iTopia binding;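 note: each peptide tested for binding to HLA-A2 molecules immobilized on plates, using a commercial screening kit run per its supplied protocol and reagents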).

binding vs positive control [%]	Binder
> 30	B13
> 30	B14
> 30	B3
> 30	B5
> 30	B7
> 30	B15
> 30	B16
> 30	B11

The binders below were run against HLA-B*0702 (human) (assay: iTopia net score).

iScore	Binder
0.08	B1
0.293	B6
0.022	B16
0.153	B10

What follows are binders tested against HLA-A*2402 (human) (assay: iTopia off-rate).

t1/2	Binder
0.23	B14
0.5	B2
0.24	B4
1.6	B6
0.38	B15
0.8	B16
1.52	B8
0.25	B9

These binders were tested against HLA-A*0301 (human) (assay: iTopia affinity).

ED50 [µM]	Binder
7.5	B12

These binders were tested against T1, HLA-A*1501 (assay: iTopia affinity).

ED50 [µM]	Binder
48	B1
5.3	B2
39	B3
29	B4
24	B5
15	B6
39	B7
22	B8
8.3	B9
51	B10
8.3	B11
7.6	B12

These binders were tested against T2, HLA-A*0201 (assay: iTopia net score;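 note: combined score from peptide binding, ED₅₀ and half-life of peptide complexes with plate-bound HLA-A2 molecules, computed by a proprietary formula in iTopia software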).

iScore	Binder
0.815	B13
0.132	B14
0.304	B3
0.174	B5
0.204	B7
0.107	B15
0.199	B16
0.546	B11

Each binder was assayed against T2, HLA-A*0201 (assay: iTopia affinity;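 note: peptide affinity for plate-bound HLA-A2 molecules (iTopia system), with ED50 derived from an eight-point serial peptide dilution series run under binding assay conditions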).

ED50 [µM]	Binder
0.6	B13
2.7	B14
6	B3
8	B5
7	B7
7	B15
10	B16
30	B11

These binders were tested against HLA-A*0301 (human) (assay: iTopia net score).

iScore	Binder
0.27	B12

Each binder was assayed against HLA-A*0101 (human) (assay: iTopia net score).

iScore	Binder
0.063	B13
0.137	B2

The binders below were run against HLA-B*0702 (human) (assay: iTopia affinity).

ED50 [µM]	Binder
14	B1
2.4	B6
99	B16
11	B10

What follows are binders tested against HLA-A*2402 (human) (assay: iTopia net score;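 note: iScore from iTopia software combining peptide binding, affinity over a dilution series and off-rate after warming to body temperature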).

iScore	Binder
0.095	B14
0.157	B2
0.048	B4
0.13	B6
0.076	B15
0.075	B16
0.184	B8
0.082	B9

Each binder was assayed against HLA-A*0101 (human) (assay: iTopia off-rate).

t1/2	Binder
0.27	B13
0.97	B2
